Results published in US20200283523A1 (WUXI BIOLOGICS IRELAND, published 2020).

Tests used:
C1Q = molecular target: T1, C1Q (UniProt P02745 23-245; P02746 28-253; P02747 29-245); experiment: ELISA, antibody coated on the plate, C1q titrated (axis [C1q] nM), anti-human C1q-HRP detection
T1 construct: also called Clq
Method: ELISA Plates (Nunc) were coated with antibody samples at 3 μg/mL overnight at 4° C. After blocking and washing, C1q was gradient diluted starting from 600 μg/mL and incubated at room temperature for 2 hr. The plates were then washed and subsequently incubated with sheep anti-human C1q Ab-HRP for 1 hr. After washing, TMB substrate was added and the interaction was stopped by 2 M HCl. The absorbance at 450 nm was read using a microplate reader (Molecular Device).
The binding activity of antibodies to C1Q was tested by ELISA.

FcγRIIa (H167) = molecular target: T2, FcγRIIa (H167) (UniProt P12318 36-218, limits assumed); experiment: SPR (Biacore), receptor captured on anti-his chip, antibody injected, steady state fit
T2 sequence (looked up): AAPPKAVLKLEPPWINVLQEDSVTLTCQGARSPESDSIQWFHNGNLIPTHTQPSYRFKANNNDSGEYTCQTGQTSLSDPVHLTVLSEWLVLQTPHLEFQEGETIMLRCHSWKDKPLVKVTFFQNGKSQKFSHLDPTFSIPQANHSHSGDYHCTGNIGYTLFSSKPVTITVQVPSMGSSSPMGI
Method: (§1) Antibody binding affinity to FcγRs was detected using Biacore T200 (or Biacore 8K). Each receptor was captured on an anti-his antibody immobilized CMS sensor chip (GE). Antibodies at different concentrations were injected over the sensor chip at a flow rate of 30 uL/min for an association phase of 60 s, followed by 60 s dissociation. The chip was then regenerated by 10 mM glycine (pH 1.5) after each binding cycle.
(§2) The sensorgrams of blank surface and buffer channel were subtracted from the test sensorgrams. The experimental data was fitted by 1:1 model using Langmiur analysis (for FcγRI) or steady state model (for other receptors). A molecular weight of 150 KDa was used to calculate the molar concentration of antibodies.

FcγRIIIa (F176) = FcγRIIIa (F176) (UniProt P08637 17-208); experiment: as above
FcγRIIIa (F176), sequence (P08637 17-208 limits assumed): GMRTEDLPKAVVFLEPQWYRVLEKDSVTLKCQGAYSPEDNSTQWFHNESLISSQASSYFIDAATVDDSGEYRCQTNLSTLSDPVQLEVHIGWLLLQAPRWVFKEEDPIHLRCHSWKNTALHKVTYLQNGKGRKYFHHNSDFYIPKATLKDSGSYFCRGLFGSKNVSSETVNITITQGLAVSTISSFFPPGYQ
Method: as §1, §2

FcγRIIa (R167) = molecular target: T3, FcγRIIa (R167) (UniProt P12318 36-218, limits assumed); experiment: as above
T3 sequence (looked up): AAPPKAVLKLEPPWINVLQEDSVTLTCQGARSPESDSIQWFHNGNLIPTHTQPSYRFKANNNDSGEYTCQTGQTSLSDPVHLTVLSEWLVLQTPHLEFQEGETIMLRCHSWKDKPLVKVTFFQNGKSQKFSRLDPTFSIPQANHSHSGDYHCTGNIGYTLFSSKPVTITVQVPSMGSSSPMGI
Method: as §1, §2

FcγRIIIb = FcγRIIIb (UniProt O75015 17-200); experiment: as above
FcγRIIIb, sequence (O75015 17-200 limits assumed): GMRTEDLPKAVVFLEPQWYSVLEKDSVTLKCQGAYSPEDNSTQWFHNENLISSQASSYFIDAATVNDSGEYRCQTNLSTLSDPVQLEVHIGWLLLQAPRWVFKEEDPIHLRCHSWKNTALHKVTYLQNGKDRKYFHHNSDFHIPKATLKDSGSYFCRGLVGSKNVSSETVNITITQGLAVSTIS
Method: as §1, §2

FcγRIIIa (V176) = FcγRIIIa (V176) (UniProt P08637 17-208); experiment: as above
FcγRIIIa (V176), sequence (P08637 17-208 F176V limits assumed): as the sequence (P08637 17-208 limits assumed) above, with F160V counted along it
Method: as §1, §2

FcγRIIb = molecular target: T4, FcγRIIb (UniProt P31994 46-217, limits assumed); experiment: as above
T4 sequence (looked up): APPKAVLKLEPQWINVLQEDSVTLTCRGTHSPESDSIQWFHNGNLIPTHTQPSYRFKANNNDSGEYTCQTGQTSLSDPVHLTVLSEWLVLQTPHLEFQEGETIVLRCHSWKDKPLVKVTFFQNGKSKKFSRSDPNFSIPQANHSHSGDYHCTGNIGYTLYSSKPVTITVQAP
Method: as §1, §2

human CD19 [1] = molecular target: T5, human CD19 (human, UniProt P15391 20-556); experiment: flow cytometry on Ramos cells
T5 construct: whole, on cells; also called CD19 on Ramos cells; CD19 on Raji cells
T5 sequence (looked up): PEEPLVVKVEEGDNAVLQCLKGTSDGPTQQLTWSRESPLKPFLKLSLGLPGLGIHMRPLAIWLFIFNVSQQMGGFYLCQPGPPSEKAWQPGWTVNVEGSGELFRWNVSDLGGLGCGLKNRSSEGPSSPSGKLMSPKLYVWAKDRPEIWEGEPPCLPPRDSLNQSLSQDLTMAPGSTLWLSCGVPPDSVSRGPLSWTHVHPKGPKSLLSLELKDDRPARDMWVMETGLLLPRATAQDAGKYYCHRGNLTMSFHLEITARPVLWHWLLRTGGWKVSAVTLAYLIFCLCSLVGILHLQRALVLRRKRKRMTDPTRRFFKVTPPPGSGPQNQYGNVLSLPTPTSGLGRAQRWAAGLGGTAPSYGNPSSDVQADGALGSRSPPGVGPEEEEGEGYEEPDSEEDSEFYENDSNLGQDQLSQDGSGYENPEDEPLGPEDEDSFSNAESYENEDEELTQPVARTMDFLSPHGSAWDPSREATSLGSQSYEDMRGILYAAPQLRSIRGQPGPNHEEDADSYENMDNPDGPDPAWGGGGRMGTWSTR

FcRn = FcRn (UniProt P55899 24-297; P61769 21-119, limits assumed); experiment: SPR (Biacore) at pH 6.0, antibody immobilized, FcRn injected, steady state fit
Method: Antibody binding affinity to FcRn was detected using Biacore T200 (or Biacore 8K). Each antibody was immobilized on CMS sensor chip (GE). FcRn at different concentrations in running buffer (50 mM Na2HPO4/NaH2PO4, 150 mM NaCl, 0.05% Tween20, pH 6.0) were injected over the sensor chip at a flow rate of 30 uL/min for an association phase of 60 s, followed by 60 s dissociation. The chip was then regenerated by 1×PBS (pH 7.4) after each binding cycle.
The binding of W3438-T3U4.E17-1.uIgG4.SP to FcRn was tested by SPR at pH 6.0.

human CD19 [2] = molecular target: T5, human CD19; experiment: cell-based or functional assay
FcγRI = FcγRI (UniProt P12314 16-288, limits assumed); experiment: SPR (Biacore), receptor captured on anti-his chip, antibody injected, 1:1 Langmuir fit
FcγRI, sequence (P12314 16-288 limits assumed): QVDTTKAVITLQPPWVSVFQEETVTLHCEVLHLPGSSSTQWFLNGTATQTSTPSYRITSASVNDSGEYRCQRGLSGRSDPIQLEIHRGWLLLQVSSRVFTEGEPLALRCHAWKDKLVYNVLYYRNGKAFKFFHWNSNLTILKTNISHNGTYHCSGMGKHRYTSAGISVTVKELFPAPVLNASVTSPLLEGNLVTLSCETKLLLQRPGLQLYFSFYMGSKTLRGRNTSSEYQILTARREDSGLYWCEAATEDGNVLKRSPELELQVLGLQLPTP
Method: as §1, §2

T1 sequence (P02745 23-245 limits assumed, chain 1 of 3): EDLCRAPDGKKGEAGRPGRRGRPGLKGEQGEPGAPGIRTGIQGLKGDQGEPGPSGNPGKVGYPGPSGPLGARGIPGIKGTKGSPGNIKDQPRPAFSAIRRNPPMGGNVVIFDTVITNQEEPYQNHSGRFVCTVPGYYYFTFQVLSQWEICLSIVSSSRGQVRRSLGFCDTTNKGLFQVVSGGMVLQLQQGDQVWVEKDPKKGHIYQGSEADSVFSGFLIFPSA
T1 sequence (P02746 28-253 limits assumed, chain 2 of 3): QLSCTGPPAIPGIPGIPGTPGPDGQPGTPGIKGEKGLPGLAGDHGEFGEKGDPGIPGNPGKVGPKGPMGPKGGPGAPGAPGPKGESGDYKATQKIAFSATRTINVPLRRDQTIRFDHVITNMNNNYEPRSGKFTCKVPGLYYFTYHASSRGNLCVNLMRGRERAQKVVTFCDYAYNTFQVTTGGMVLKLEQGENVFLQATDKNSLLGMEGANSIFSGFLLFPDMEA
T1 sequence (P02747 29-245 limits assumed, chain 3 of 3): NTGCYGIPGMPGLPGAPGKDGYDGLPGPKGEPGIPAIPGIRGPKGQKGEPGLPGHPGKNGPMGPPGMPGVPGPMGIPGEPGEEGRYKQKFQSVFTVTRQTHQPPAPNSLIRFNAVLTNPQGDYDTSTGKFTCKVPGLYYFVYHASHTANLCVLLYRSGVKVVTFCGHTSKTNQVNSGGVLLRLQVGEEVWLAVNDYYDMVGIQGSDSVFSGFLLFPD

- binding result (C1Q): no binding (tested: about 1500 nM C1q)
- Kd (FcγRIIa (H167)): 20.5 µM
- Kd (FcγRIIIa (F176)): 29.3 µM
- Kd (FcγRIIa (R167)): 15.8 µM
- Kd (FcγRIIIb): > 41 µM
- Kd (FcγRIIIa (V176)): 14 µM
- Kd (FcγRIIb): 24.1 µM
- EC50 (human CD19 [1]): 0.0156 µM
- Kd (FcRn): 2.58 µM
- Kd (FcγRI): 0.00979 µM
B1: W3438-T3U4.E17-1.uIgG4.SP (bispecific antibody)
light 1: DIVMTQSPDSLAVSLGERATINCKSSQSLLNSRTRKNYLAWYQQKPGQPPKLLIYWASTRQSGVPDRFSGSGSGTDFTLTISSLQAEDVAVYYCTQSHTLRTFGGGTKVEIKPDIQNPDPAVYQLRDSKSSDKSVCLFTDFDSQTQVSQSKDSDVYITDKCVLDMRSMDFKSNSAVAWSQKSDFACANAFQNSIIPEDTFFPSPESS
heavy 1: QVQLVQSGAEVKKPGSSVKVSCKASGFAFTDYYIHWVRQAPGQGLEWMGWISPGNVNTKYNENFKGRVTITADKSTSTAYMELSSLRSEDTAVYYCARDGYSLYYFDYWGQGTLVTVLEDLKNVFPPEVAVFEPSEAEISHTQKATLVCLATGFYPDHVELSWWVNGKEVHSGVCTDPQPLKEQPALQDSRYALSSRLRVSATFWQNPRNHFRCQVQFYGLSENDEWTQDRAKPVTQIVSAEAWGRYGPPCPPCPAPEFLGGPSVFLFPPKPKDTLMISRTPEVTCVVVDVSQEDPEVQFNWYVDGVEVHNAKTKPREEQFNSTYRVVSVLTVLHQDWLNGKEYKCKVSNKGLPSSIEKTISKAKGQPREPQVYTLPPCQEEMTKNQVSLWCLVKGFYPSDIAVEWESNGQPENNYKTTPPVLDSDGSFFLYSRLTVDKSRWQEGNVFSCSVMHEALHNHYTQKSLSLSLGK
light 2: DIQLTQSPSFLSASVGDRVTITCSASSTVNYMHWYQQKPGKAPKLLIYSTSNLASGVPSRFSGSGSGTEFTLTISSLQPEDFATYYCHQWSSYPYTFGQGTKLEIKRTVAAPSVFIFPPSDEQLKSGTASVVCLLNNFYPREAKVQWKVDNALQSGNSQESVTEQDSKDSTYSLSSTLTLSKADYEKHKVYACEVTHQGLSSPVTKSFNRGEC
heavy 2: QMQLVQSGPEVKKPGTSVKVSCKASGYAFTSYNMYWVRQARGQRLEWIGYIDPYNGDTTYNQKFKGRVTITRDMSTSTAYMELSSLRSEDTAVYYCLTTAYAMDYWGQGTLVTVSSASTKGPSVFPLAPCSRSTSESTAALGCLVKDYFPEPVTVSWNSGALTSGVHTFPAVLQSSGLYSLSSVVTVPSSSLGTKTYTCNVDHKPSNTKVDKRVESKYGPPCPPCPAPEFLGGPSVFLFPPKPKDTLMISRTPEVTCVVVDVSQEDPEVQFNWYVDGVEVHNAKTKPREEQFNSTYRVVSVLTVLHQDWLNGKEYKCKVSNKGLPSSIEKTISKAKGQPREPQVCTLPPSQEEMTKNQVSLSCAVKGFYPSDIAVEWESNGQPENNYKTTPPVLDSDGSFFLVSRLTVDKSRWQEGNVFSCSVMHEALHNHYTQKSLSLSLGK
notes: Bispecific, bivalent: one anti-CD3 arm with TCR constant domains and one native anti-CD19 Fab arm, IgG4 S228P Fc with knobs-into-holes; also called WBP3438; CD3×CD19 bispecific antibody; copies: 1 + 1 + 1 + 1
- cytotoxic activity on Raji cells with CD8+ T cells, EC50 (human CD19 [2]): 0.015 µM
